Publication PMC3458437
Values joined by “and” are separate entries in the source; they are usually repeats but may differ in a detail not shown here. Equal entries are not always repeated.

Substrate: O=P(O)(O)CCO
Test: O2 consumption, Clark-type oxygen electrode, initial rates
Format: biochemical, Nitrosopumilus maritimus
Settings: co-substrate O2 about 250 μM; Fe(II)-reconstituted enzyme; labelled compound

B1: methylphosphonate synthase (MPnS) (Nitrosopumilus maritimus SCM1) (protein)
chain: MEKKIDFKPDSYLIRSGNNFLGILNDIKRRPEDAANELGVSIEEINSIISGKQKISPSLIEKAVNIWPVNERDFYIVSDDCSSGILIMTSQDSIKSSRIMERAGKPYYEYRDTAMSKTAPFRPEWILELCKVENNDPENPKAQWNNGHFMHQFTYFIGEVNFYYKDPEGKKHVAIMNTGDSMYITPFTPHTFTTRDGASQNGLILALTYGSKLTGDIQQELSSLSLDCGSQYALDFTNHENASLSLLEYYFELSNLTKEKFAKRTNFSMETLADFFTKKKLPTFDELKIIAKALNVNSRDLMPNDLTESKVIVKTHDQCDHWKYPESGNYEFYELASTTALPHSKAFEIDVSSSEDLNLDLKVGLHQYVYNIGDSALTINWNYENKTYQKSLNPGDSAYIKPFVPHNFRGNGKILILRIGGKISGDSQRELSFVGRENTQRAISETMQWFDPKGSNS
Which results are given for B1?
Km: 7.1 ± 0.8 µM and 6.5 ± 1.5 µM and 7.2 ± 1.4 µM; kcat: 0.17 ± 0.01 s⁻¹; kcat/Km: 24000 M⁻¹ s⁻¹ (2×) and 26000 M⁻¹ s⁻¹
